{"source": "paper PMC6353875", "about": "(2019)", "biological_target": "EZH2 SRM-SANT1 (residues 141–251) (human, UniProt Q15910 141-251)", "sequence (Q15910 141-251)": "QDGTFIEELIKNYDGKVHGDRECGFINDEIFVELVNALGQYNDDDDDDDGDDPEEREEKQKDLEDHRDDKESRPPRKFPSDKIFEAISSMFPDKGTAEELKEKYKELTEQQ", "test": "NMR", "data": [{"binder": "PEPAKSAPAPK", "note": "[unmodified histone H2B peptide (residues 1–11)]", "values": [{"measurement": "Kd", "result": "> 5", "unit": "mM"}]}]}
